Assay results as given in PMC4678855 (Nucleic Acids Research, 2015).

Experiments:
[1] = target: the molecule itself; experiment: SAXS
[2] = target: B. subtilis β-clamp, cysteine-modified variant (residues 1–380 including the added Ser379–Cys380 dipeptide) (B. subtilis) (UniProt P05649); experiment: SAXS

B1: B. subtilis MutL C-terminal domain, inactive cysteine-modified variant (residues 433–627; E485C, C531S, C573S, C604S) (domain or fragment, UniProt P49850 433-627, looked up)
chain: SDRVPIMYPIGQMHGTYILAQNENGLYIIDQHAAQERIKYEYFREKVGEVEPCVQEMIVPLTFHYSTNEALIIEQHKQELESVGVFLESFGSNSYIVRSHPAWFPKGEEAELIEEIIQQVLDSKNIDIKKLREEAAIMMSSKGSIKANRHLRNDEIKALLDDLRSTSDPFTSPHGRPIIIHHSTYEMEKMFKRVM
- stoichiometry N [1]: 2
- stoichiometry N [2]: 1
